In experiment [1] the target is T1, full-length human CEA on cells (human, UniProt P06731 35-685).
T1 sequence: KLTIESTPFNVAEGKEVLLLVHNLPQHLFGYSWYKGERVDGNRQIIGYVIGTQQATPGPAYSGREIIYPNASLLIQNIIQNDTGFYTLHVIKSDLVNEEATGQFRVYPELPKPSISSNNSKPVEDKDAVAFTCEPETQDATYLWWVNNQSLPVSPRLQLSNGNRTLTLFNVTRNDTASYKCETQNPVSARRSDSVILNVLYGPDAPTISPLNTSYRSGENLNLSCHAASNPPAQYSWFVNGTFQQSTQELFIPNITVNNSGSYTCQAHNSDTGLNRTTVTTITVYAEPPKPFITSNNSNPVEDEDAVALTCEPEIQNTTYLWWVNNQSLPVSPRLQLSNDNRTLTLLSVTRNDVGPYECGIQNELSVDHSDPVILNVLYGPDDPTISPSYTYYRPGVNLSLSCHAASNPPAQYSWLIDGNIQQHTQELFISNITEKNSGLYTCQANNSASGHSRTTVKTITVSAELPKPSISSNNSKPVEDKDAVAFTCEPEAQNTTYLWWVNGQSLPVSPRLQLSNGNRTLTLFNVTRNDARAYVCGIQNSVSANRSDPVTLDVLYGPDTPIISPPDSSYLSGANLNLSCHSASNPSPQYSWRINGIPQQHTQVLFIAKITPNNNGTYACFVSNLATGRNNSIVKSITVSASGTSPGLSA
The experiment is described as follows: cell-based or functional assay.

Experiment [2] deals with T1, full-length human CEA on cells. The experiment is described as follows: flow cytometry on LOVO cells, Alexa Fluor 647 anti-human IgG Fc. The method, then:
For this experiment, anti-human IgG (Fc) antibody was immobilized on an activated CM5 biosensor chip (Cat. No. BR100839, GE Life Sciences). Anti-CEA antibodies were flowed over the chip surface and captured by anti-human Fab antibody. […] For flow cytometry, CEA-expressing cells (10⁵ cells/well) were incubated with various concentrations of purified affinity-matured antibodies, followed by binding with Alexa Fluro-647-labeled anti-hu IgG Fc antibody (Cat. No. 409320, BioLegend, USA). Cell fluorescence was quantified using a flow cytometer (Guava easyCyte™ 8HT, Merck-Millipore, USA). The equilibrium dissociation constant (KD) was calculated as the ratio koff/kₒₙ.

The target is the same in experiment [3]. As to the kind of experiment: flow cytometry on MKN45 cells, Alexa Fluor 647 anti-human IgG Fc. The procedure:
For flow cytometry, CEA-expressing MKN45 cells (10⁵ cells/well) were incubated with various concentrations of purified affinity-matured antibodies, followed by binding with Alexa Fluro-647-labeled anti-hu IgG Fc antibody (Cat. No. 409320, BioLegend, USA). Cell fluorescence was quantified using a flow cytometer (Guava easyCyte™ 8HT, Merck-Millipore, USA).
In general terms: Flow cytometry measures light scatter and fluorescence of single cells or particles in a stream.

The target of experiment [4] is T2, CEACAM7 on transfected HEK293 cells (human, UniProt Q14002 36-242).
T2 sequence: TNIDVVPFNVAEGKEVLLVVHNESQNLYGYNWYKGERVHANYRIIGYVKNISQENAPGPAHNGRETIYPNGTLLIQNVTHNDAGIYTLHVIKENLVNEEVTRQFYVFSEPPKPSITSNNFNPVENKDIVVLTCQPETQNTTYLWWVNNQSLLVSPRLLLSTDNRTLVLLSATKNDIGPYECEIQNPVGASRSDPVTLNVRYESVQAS
The experiment is described as follows: flow cytometry on transiently transfected HEK293 cells, Alexa Fluor 647 anti-human IgG Fc [panel B]. The method, then: (§1) Cell fluorescence was quantified using a flow cytometer (Guava easyCyte™ 8HT, Merck-Millipore, USA). For antigen ELISA, CEACAM1(SEQ ID NO:64) (Cat. No. 10822-H08H, Sino Biological, China), CHIM (SEQ ID NO: 63), CEA (SEQ ID NO:55) or CEACAM6 (SEQ ID NO:57) were coated in 96-well plates at a concentration of 10 μg/ml overnight at 4° C. The HRP-linked anti-human Fc (Fc specific) IgG antibody (Cat. No. A0170, Sigma, USA) and substrate (Cat. No. 00-4201-56, eBioscience, USA) were used for development, and absorbance signal at the wavelength of 450 nm was measured using a plate reader (SpectraMax Paradigm, Molecular Devices, USA).

Experiment [5] concerns the target T3, CEACAM8 on transfected HEK293 cells (human, UniProt P31997 35-320).
T3 sequence: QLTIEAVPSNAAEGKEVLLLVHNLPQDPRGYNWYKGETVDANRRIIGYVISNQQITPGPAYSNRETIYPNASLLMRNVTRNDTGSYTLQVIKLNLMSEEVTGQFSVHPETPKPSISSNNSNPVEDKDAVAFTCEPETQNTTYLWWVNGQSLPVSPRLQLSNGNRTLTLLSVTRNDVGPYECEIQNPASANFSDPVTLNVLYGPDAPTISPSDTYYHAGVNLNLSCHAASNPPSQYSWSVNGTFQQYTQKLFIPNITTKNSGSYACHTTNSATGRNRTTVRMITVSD
The description is as above. The method, then:
as §1

The target in experiment [6] is T4, BSA (Bos taurus, UniProt P02769).
T4 construct: coated on the ELISA plate as negative control antigen; also called bovine serum albumin
T4 sequence (P02769 25-607 limits assumed): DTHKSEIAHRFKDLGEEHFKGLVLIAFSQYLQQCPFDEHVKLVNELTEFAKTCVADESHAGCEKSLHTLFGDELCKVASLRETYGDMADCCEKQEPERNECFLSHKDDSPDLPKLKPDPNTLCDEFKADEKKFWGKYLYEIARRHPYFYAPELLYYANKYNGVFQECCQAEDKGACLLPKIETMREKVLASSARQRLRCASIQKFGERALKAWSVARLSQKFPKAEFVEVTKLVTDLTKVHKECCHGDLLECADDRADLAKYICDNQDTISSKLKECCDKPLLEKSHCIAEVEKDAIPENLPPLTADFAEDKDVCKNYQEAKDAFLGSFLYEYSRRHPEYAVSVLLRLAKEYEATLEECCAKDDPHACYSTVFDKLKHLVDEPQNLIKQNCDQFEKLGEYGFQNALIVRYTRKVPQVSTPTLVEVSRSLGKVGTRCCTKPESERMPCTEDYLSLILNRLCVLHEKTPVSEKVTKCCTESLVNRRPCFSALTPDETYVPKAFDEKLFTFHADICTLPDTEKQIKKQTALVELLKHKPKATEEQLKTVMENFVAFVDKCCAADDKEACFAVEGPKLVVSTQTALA
As to the kind of experiment: antigen ELISA: antigen coated at 10 ug/ml, HRP anti-mouse IgG [panel B]. The procedure: For this experiment, sCEA, CHIM, monkey CEA, CEA-v and BSA were coated in 96-well plates at a high concentration of 10 μg/ml overnight at 4° C. […] The HRP-linked anti-mouse IgG antibody (Cat. No. 7076S, Cell Signaling Technology, USA) and substrate (Cat. No. 00-4201-56, eBioscience, USA) were used for development, and absorbance signal at the wavelength of 450 nm was measured using a plate reader (SpectraMax Paradigm, Molecular Devices, USA).
(In general: An ELISA detects its analyte on a solid surface through an enzyme-linked reagent.)

Residue numbers refer to the chain shown, from its start. Names may count otherwise.

B1: BGA113 (antibody, human IgG1, V domains shown)
VH: QVQLVQSGAEVKKPGASVKVSCKASGYIFTSYYLHWVRQAPGQGLEWIGYINPQTGYTSYAQKFQGRVTMTRDTSTSTVYMELSSLRSEDTAVYYCAREYGNYNYPLDYWGQGTLVTVSS
VL: DIQMTQSPSSLSASVGDRVTITCRASENQYGYLAWYQQKPGKVPKLLIYNYKNLVEGVPSRFSGSGSGTDFTLTISSLQPEDVATYYCQHHLGTPYTFGQGTKVEIK
notes: W33Y (VH), T51Y (VL) on BGA131F-ph-M; wild-type human IgG1 format
Take B1: the “ADCC (LDH release), EC50” value in experiment [1] was around 0.0067 µg/mL. The EC50 (read off the curve) (in general, the concentration that produces a half-maximal response) in experiment [2] was around 1 nM.

B2: BGA131F (antibody, human IgG1, V domains shown)
VH: B1 VH with Y33W
VL: B1 VL with Q29I, Y51A, L92Y
notes: BGA131 with N54Q, N59S, S61A in VH; human IgG1 / kappa format
As to B2, the “EC50 (read off the curve)” value in experiment [2] is around 6 nM.

B3: BGA113K (antibody, human IgG1, V domains shown)
VH: B1 VH with Y57K
VL: B1 VL
notes: BGA113 with Y57K in the heavy chain; generated in human IgG1 format; also called BGA113 variant Y57K; Y57K
For the molecule B3, in experiment [3], the “EC50 (read off the curve)” value was around 0.5 µg/mL. In addition, the binding result in experiment [4] and in experiment [5] was “no binding (tested: 2 ug/ml (from paragraph 184; not on the sheet))” each time.

B4: BGA131F-ph-M (antibody, V domains shown)
VH: B1 VH with Y33W
VL: B1 VL with Y51T
notes: BGA13-1F heavy chain with a selected kappa light chain, IgG; also called BGA1311F-ph-M
For the molecule B4, the “EC50 (read off the curve)” value in experiment [2] is around 5 nM.

B5: BGA13 (antibody, V domains shown)
VH: QVQLQQSGAELAKSGASVKMSCKASGYIFTSYWLHWVKQRPGQGLEWIGYINPNTGYTNYSQKFKDKATLTADKSSSTAYMQLSSLTSEDSAVYYCAREYGNYNYPLDYWGQGTSVTVSS
VL: DIQMTQSPASLSASVGETVTITCRASENIYGYLAWYQQKQGKSPQLLVFNAKNLVEGVPSRFSGSGSGTQFSLKINSLQPEDFGSYYCQHHYGTPYTFGGGTKLEIK
notes: murine monoclonal IgG purified from hybridoma supernatant; also called murine anti-CEA antibody BGA13
Consider B5, for which the binding result in experiment [6] was “no binding”.

The record behind these values is patent US20240190990A1 (BEIGENE SWITZERLAND, published 2024).
